Data on 7 substances can be found in the supplement of paper PMC5998384.

Series [1] has as its system HeLa Kyoto. Put plainly: solubility in G1/S (NP-40 vs SDS abundance) (log2 ratio); higher = more soluble. The note with it: cell cycle stage: G1/S.
The test system of series [2] is HeLa Kyoto. Put plainly: solubility change mitosis vs G1/S (difference of NP-40 vs SDS log2 ratios) (log2 ratio difference); higher = more soluble in mitosis.
For series [3], the system named is HeLa Kyoto. In words: melting temperature (median over replicates), in situ; higher = more thermally stable.
In series [4] the test system is HeLa Kyoto. In words: thermal stability score vs G1/S (z-score of summed log2 fold changes over temperatures); higher = more thermally stable than in G1/S.
Setting [5] is: cell cycle stage: early G1 (4.5 h after nocodazole release).
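For melting temperature (median over replicates), in situ in this document: HeLa Kyoto cells synchronized by double thymidine or nocodazole block, proteins quantified by TMT10plex mass spectrometry, three independent biological replicates.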
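For solubility change mitosis vs G1/S (difference of NP-40 vs SDS log2 ratios) in this document: synchronized HeLa Kyoto cells (double thymidine block for G1/S, nocodazole release for mitosis), protein amounts in NP-40 versus SDS lysates quantified by mass spectrometry, three biological replicates.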
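For solubility in G1/S (NP-40 vs SDS abundance) in this document: HeLa Kyoto cells arrested at G1/S by double thymidine block, proteins quantified by TMT10plex mass spectrometry in mild NP-40 versus SDS extracts, three biological replicates.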
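For thermal stability score vs G1/S (z-score of summed log2 fold changes over temperatures) in this document: synchronized HeLa Kyoto cells, proteins quantified by TMT10plex mass spectrometry, three biological replicates, mitosis taken 0.5 h after nocodazole release, G1/S directly after double thymidine block.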

Sequence of VPRBP (chain, as listed by the source): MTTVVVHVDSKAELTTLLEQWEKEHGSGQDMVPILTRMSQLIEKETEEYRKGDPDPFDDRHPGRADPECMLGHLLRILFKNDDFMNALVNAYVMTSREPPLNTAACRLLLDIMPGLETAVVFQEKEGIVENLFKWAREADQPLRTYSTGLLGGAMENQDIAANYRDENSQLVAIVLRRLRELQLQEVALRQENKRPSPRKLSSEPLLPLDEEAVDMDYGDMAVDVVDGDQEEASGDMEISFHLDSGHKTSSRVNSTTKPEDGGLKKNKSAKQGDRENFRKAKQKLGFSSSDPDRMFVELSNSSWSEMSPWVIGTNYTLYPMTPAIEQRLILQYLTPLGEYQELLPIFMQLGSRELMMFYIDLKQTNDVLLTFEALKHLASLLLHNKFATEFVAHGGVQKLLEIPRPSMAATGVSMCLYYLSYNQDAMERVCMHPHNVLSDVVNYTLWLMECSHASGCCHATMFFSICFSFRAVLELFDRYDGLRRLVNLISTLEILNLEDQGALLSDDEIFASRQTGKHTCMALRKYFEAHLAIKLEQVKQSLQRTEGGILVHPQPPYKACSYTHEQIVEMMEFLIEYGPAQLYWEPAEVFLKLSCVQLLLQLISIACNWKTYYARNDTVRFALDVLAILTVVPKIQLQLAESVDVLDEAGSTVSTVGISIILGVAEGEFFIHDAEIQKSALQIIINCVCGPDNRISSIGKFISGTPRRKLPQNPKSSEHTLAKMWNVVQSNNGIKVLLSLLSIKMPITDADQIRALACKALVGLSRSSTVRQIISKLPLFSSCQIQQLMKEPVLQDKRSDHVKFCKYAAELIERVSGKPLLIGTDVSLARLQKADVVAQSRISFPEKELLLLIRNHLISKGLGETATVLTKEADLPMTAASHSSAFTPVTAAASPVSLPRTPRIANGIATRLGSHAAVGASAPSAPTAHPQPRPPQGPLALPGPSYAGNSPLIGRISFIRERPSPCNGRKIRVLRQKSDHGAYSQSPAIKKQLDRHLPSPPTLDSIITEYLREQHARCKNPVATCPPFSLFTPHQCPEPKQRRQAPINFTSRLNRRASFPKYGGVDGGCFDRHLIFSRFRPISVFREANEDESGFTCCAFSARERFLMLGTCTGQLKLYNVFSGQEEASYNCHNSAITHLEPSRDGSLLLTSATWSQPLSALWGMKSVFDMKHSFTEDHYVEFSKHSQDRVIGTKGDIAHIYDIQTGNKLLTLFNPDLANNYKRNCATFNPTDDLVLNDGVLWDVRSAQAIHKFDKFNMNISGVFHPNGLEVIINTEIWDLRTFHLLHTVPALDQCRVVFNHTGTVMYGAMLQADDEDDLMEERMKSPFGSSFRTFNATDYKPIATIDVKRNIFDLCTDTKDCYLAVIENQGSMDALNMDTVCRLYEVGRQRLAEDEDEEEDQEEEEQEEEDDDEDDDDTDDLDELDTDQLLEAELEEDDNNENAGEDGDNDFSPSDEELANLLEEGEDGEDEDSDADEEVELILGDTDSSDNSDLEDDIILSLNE

In the case of “MVGEEKMSLRNRLSKSRENPEEDEDQRNPAKESLETPSNGRIDIKQLIAKKIKLTAEAEELKPFFMKEVGSHFDDFVTNLIEKSASLDNGGCALTTFSVLEGEKNNHRAKDLRAPPEQGKIFIARRSLLDELLEVDHIRTIYHMFIALLILFILSTLVVDYIDEGRLVLEFSLLSYAFGKFPTVVWTWWIMFLSTFSVPYFLFQHWATGYSKSSHPLIRSLFHGFLFMIFQIGVLGFGPTYVVLAYTLPPASRFIIIFEQIRFVMKAHSFVRENVPRVLNSAKEKSSTVPIPTVNQYLYFLFAPTLIYRDSYPRNPTVRWGYVAMKFAQVFGCFFYVYYIFERLCAPLFRNIKQEPFSARVLVLCVFNSILPGVLILFLTFFAFLHCWLNAFAEMLRFGDRMFYKDWWNSTSYSNYYRTWNVVVHDWLYYYAYKDFLWFFSKRFKSAAMLAVFAVSAVVHEYALAVCLSFFYPVLFVLFMFFGMAFNFIVNDSRKKPIWNVLMWTSLFLGNGVLLCFYSQEWYARQHCPLKNPTFLDYVRPRSWTCRYVF [SOAT1]”, in the series with HeLa Kyoto [1], the “solubility in G1/S (log2)” value is -0.292. For the same substance, in the series with HeLa Kyoto [2], the “solubility change mitosis (log2)” value was -0.0778. The melting temperature turned out to be 52.2 °C in the series on HeLa Kyoto [3] (cell cycle stage: G1/S) and 52 °C with HeLa Kyoto [3] (cell cycle stage: mitosis). For the same substance, the thermal stability score in the series with HeLa Kyoto [4] (setting [5]) is 0.192; in the series with HeLa Kyoto [4] (cell cycle stage: mitosis), 0.0734.

On to VPRBP, for which the “solubility in G1/S (log2)” value in the series on HeLa Kyoto [1] is -0.225. The “solubility change mitosis (log2)” value with HeLa Kyoto [2] was -0.0867. Further, the figures for the melting temperature in the series on HeLa Kyoto [3] (cell cycle stage: G1/S) and with HeLa Kyoto [3] (cell cycle stage: mitosis) were 50.8 °C and 50.6 °C, respectively. Besides, the values for the thermal stability score with HeLa Kyoto [4] (setting [5]) and in the series with HeLa Kyoto [4] (cell cycle stage: mitosis) were -0.576 and -0.973, respectively.

Turning to “MATESPATRRVQVAEHPRLLKLKEMFNSKFGSIPKFYVRAPGRVNIIGEHIDYCGYSVLPMAVEQDVLIAVEPVKTYALQLANTNPLYPDFSTSANNIQIDKTKPLWHNYFLCGLKGIQEHFGLSNLTGMNCLVDGNIPPSSGLSSSSALVCCAGLVTLTVLGRNLSKVELAEICAKSERYIGTEGGGMDQSISFLAEEGTAKLIEFSPLRATDVKLPSGAVFVIANSCVEMNKAATSHFNIRVMECRLAAKLLAKYKSLQWDKVLRLEEVQAKLGISLEEMLLVTEDALHPEPYNPEEICRCLGISLEELRTQILSPNTQDVLIFKLYQRAKHVYSEAARVLQFKKICEEAPENMVQLLGELMNQSHMSCRDMYECSCPELDQLVDICRKFGAQGSRLTGAGWGGCTVSMVPADKLPSFLANVHKAYYQRSDGSLAPEKQSLFATKPGGGALVLLEA [GALK2]”, in the series with HeLa Kyoto [1], the “solubility in G1/S (log2)” value was 0.145. Also, in the series on HeLa Kyoto [2], the “solubility change mitosis (log2)” value is -0.141. Moreover, the melting temperature in the series with HeLa Kyoto [3] (cell cycle stage: G1/S) is 54.5 °C; in the series on HeLa Kyoto [3] (cell cycle stage: mitosis), 54.2 °C. Besides, the values for the thermal stability score with HeLa Kyoto [4] (setting [5]) and in the series with HeLa Kyoto [4] (cell cycle stage: mitosis) were 0.289 and 0.99, respectively.

As to “MAERQEEQRGSPPLRAEGKADAEVKLILYHWTHSFSSQKVRLVIAEKALKCEEHDVSLPLSEHNEPWFMRLNSTGEVPVLIHGENIICEATQIIDYLEQTFLDERTPRLMPDKESMYYPRVQHYRELLDSLPMDAYTHGCILHPELTVDSMIPAYATTRIRSQIGNTESELKKLAEENPDLQEAYIAKQKRLKSKLLDHDNVKYLKKILDELEKVLDQVETELQRRNEETPEEGQQPWLCGESFTLADVSLAVTLHRLKFLGFARRNWGNGKRPNLETYYERVLKRKTFNKVLGHVNNILISAVLPTAFRVAKKRAPKVLGTTLVVGLLAGVGYFAFMLFRKRLGSMILAFRPRPNYF [GDAP1]”, the “solubility in G1/S (log2)” value in the series with HeLa Kyoto [1] was -0.194. Further, the “solubility change mitosis (log2)” value in the series with HeLa Kyoto [2] is -0.1. Besides, the melting temperature turned out to be 54 °C in the series on HeLa Kyoto [3] (cell cycle stage: G1/S) and 52 °C with HeLa Kyoto [3] (cell cycle stage: mitosis). Further, the thermal stability score with HeLa Kyoto [4] (setting [5]) and in the series on HeLa Kyoto [4] (cell cycle stage: mitosis) was 1.45 throughout.

Take “MGELPLDINIQEPRWDQSTFLGRARHFFTVTDPRNLLLSGAQLEASRNIVQNYRAGVVTPGITEDQLWRAKYVYDSAFHPDTGEKVVLIGRMSAQVPMNMTITGCMLTFYRKTPTVVFWQWVNQSFNAIVNYSNRSGDTPITVRQLGTAYVSATTGAVATALGLKSLTKHLPPLVGRFVPFAAVAAANCINIPLMRQRELQVGIPVADEAGQRLGYSVTAAKQGIFQVVISRICMAIPAMAIPPLIMDTLEKKDFLKRRPWLGAPLQVGLVGFCLVFATPLCCALFPQKSSIHISNLEPELRAQIHEQNPSVEVVYYNKGL [SFXN3]”: the “solubility in G1/S (log2)” value in the series with HeLa Kyoto [1] stood at 0.286. For the same substance, in the series with HeLa Kyoto [2], the “solubility change mitosis (log2)” value is -0.0789. In addition, the melting temperature turned out to be 53.6 °C in the series with HeLa Kyoto [3] (cell cycle stage: G1/S) and 53.5 °C in the series on HeLa Kyoto [3] (cell cycle stage: mitosis). In addition, the thermal stability score in the series on HeLa Kyoto [4] (setting [5]) is -0.249; with HeLa Kyoto [4] (cell cycle stage: mitosis), -0.897.

As to “MSKPPPKPVKPGQVKVFRALYTFEPRTPDELYFEEGDIIYITDMSDTNWWKGTSKGRTGLIPSNYVAEQAESIDNPLHEAAKRGNLSWLRECLDNRVGVNGLDKAGSTALYWACHGGHKDIVEMLFTQPNIELNQQNKLGDTALHAAAWKGYADIVQLLLAKGARTDLRNIEKKLAFDMATNAACASLLKKKQGTDAVRTLSNAEDYLDDEDSD [OSTF1]”, the “solubility in G1/S (log2)” value in the series with HeLa Kyoto [1] amounted to 0.545. For the same substance, the “solubility change mitosis (log2)” value in the series on HeLa Kyoto [2] is -0.158. Also, the melting temperature came to 49.3 °C in the series with HeLa Kyoto [3] (cell cycle stage: G1/S) and 50.7 °C in the series on HeLa Kyoto [3] (cell cycle stage: mitosis). Besides, the thermal stability score is -0.239 with HeLa Kyoto [4] (setting [5]) and 0.339 with HeLa Kyoto [4] (cell cycle stage: mitosis).

In the case of “MAAAPPLRDRLSFLHRLPILLKGTSDDDVPCPGYLFEEIAKISHESPGSSQCLLEYLLSRLHSSSGHGKLKVLKILLYLCSHGSSFFLLILKRNSAFIQEAAAFAGPPDPLHGNSLYQKVRAAAQDLGSTLFSDTVLPLAPSQPLGTPPATGMGSQARPHSTLQGFGYSKEHGRTAVRHQPGQAGGGWDELDSGPSSQNSSQNSDLSRVSDSGSHSGSDSHSGASREPGDLAERVEVVALSDCQQELSLVRTVTRGPRAFLSREEAQHFIKACGLLNCEAVLQLLTCHLRGTSECTQLRALCAIASLGSSDLLPQEHILLRTRPWLQELSMGSPGPVTNKATKILRHFEASCGQLSPARGTSAEPGPTAALPGPSDLLTDAVPLPGSQVFLQPLSSTPVSSRSPAPSSGMPSSPVPTPPPDASPIPAPGDPSEAEARLAESRRWRPERIPGGTDSPKRGPSSCAWSRDSLFAGMELVACPRLVGAGAAAGESCPDAPRAPQTSSQRTAAKEPPGSEPSAFAFLNA [ENTHD2]”, the “solubility in G1/S (log2)” value in the series on HeLa Kyoto [1] was 0.305. Further, in the series with HeLa Kyoto [2], the “solubility change mitosis (log2)” value is 0.0532. Besides, the melting temperature with HeLa Kyoto [3] (cell cycle stage: G1/S) was 53.4 °C; in the series on HeLa Kyoto [3] (cell cycle stage: mitosis), 50.6 °C. For the same substance, the thermal stability score was -0.323 in the series on HeLa Kyoto [4] (setting [5]) and -0.0735 with HeLa Kyoto [4] (cell cycle stage: mitosis).
